Values quoted from earlier work as cited in article PMC11987431.

Target: IL-6 receptor (Rattus norvegicus) (UniProt P22273)
UniProt P22273, sequence (P22273 20-364, chain 1 of 2): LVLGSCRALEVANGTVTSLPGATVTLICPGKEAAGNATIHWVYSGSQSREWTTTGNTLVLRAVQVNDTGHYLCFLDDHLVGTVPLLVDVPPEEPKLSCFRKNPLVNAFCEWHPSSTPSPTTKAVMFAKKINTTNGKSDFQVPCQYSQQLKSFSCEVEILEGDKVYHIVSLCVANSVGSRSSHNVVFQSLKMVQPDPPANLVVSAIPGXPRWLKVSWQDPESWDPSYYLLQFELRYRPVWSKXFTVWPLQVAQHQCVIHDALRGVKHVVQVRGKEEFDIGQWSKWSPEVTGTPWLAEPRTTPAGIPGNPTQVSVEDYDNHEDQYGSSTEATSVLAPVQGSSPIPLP
UniProt P22273, sequence (P40190 23-618, chain 2 of 2, further chain): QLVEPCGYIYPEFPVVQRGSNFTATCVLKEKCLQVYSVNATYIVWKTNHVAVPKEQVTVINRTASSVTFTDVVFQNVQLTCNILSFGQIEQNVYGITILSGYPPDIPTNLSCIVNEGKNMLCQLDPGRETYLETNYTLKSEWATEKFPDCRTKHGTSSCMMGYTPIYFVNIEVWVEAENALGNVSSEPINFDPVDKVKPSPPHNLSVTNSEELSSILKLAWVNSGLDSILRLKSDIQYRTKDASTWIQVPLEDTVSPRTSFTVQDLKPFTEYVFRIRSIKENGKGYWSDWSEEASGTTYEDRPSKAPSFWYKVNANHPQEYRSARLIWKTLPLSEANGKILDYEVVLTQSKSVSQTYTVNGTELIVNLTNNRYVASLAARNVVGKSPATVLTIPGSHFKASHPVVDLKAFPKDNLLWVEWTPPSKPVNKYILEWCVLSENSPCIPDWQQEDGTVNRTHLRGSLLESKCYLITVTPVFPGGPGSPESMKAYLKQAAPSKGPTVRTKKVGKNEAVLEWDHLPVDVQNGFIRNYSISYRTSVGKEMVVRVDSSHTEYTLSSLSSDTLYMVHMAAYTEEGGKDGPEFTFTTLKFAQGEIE

IL-6, sequence (P20607 25-211): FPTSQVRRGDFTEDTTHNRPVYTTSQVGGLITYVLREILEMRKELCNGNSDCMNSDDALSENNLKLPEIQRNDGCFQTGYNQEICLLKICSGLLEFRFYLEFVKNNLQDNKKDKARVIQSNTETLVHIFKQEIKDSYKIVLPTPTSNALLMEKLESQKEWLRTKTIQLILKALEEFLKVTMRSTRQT

- Kd: 15 pM
Substance: IL-6 (from UniProt P20607)
